Values of other authors as cited in PMC9917595.

Biological target: Endothelin-1 (Homo sapiens) (UniProt P05305)
Details: cited from earlier work

Chain of UniProt P05305 (P05305 53-73): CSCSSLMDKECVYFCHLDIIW

In the case of “Endothelin B receptor (from UniProt P24530)”, the Kd is listed as 0.0286 nM.
